Results reported in the DeepSol protein solubility set.

test: soluble on expression in E. coli; label from the status in PepcDB or PDB records

Row | Sequence | soluble on expression in E. coli
1 | MGSDKIHHHHHHMPGFNSSPASEKSSLLRQHFPLVTIPEYNSWDPDIAYIQLEQAILPLLNQGVLLTGSSLGGFWAYQFACRYRQPCLLINPCMHPELSLQRYIGKVENFYSHEQGWLTEAHLGKYAAYRVNGQPSRLTVLHEQGDELIPYMESVVNFSGKAKLILPGGGHHRFARTDLIAACIRDMLPPEDAGHQKA | not soluble
2 | MSLAESAFSERIVQNLLDTDFYKLTMMQAVLHNYPNAEVEWEFRCRNQEDLRLYLPAIREQLEYLAGLAISDEQLAFLERIPFLAPDFIRFLGLFRFNPRYVQTGIENDEFFLRLKGPWLHVILFEVPLLAMISEVRNRARYPAATVEQARERLQEKFDWLRREASAEELAGFKMADFGTRRRFSYRVHEAVVSGLKEDFPGCFVGTSNVHLARKLDLKPLGTMAHEWLMAHQQLGPRLIDSQSAALDCWVREYRGLLGIALTDCITTDAFLRDFDLYFAKLFDGLRHDSGDPLLWAEKTIAHYLKLGIDPLTKTLVFSDGLDLPRALKIYRALQGRINVSFGIGTHFTCDLPGVEPMNIVVKMSACNGHPVAKISDTPGKAQCRDPDFIHYLKHVFQVAEGHHHHHH | soluble
3 | SGSHTALIEVKGMIADDEPASADNIVTALRAAFKDEGTKGIVLRINSPGGSPVQSGYIYDEIRRLRGEHPNVKVYAVISDLGASGAYYIASAADQIYADKASLVGSIGVTAASFGFVGTMEKLGVERRVYTSGEHKSFLDPFQPQKPEETQFWQQVLDTTHKQFIDSVKKGRGDRLKVEGHPELFSGLVWSGEQALQLGLIDGLGNASYVAREVVKEKKIEDYTVQESPFDRFAKKFGASVAERLALWMGWQGPVLR | not soluble
4 | MSNYSVSLVGPAPWGFRLQGGKDFNMPLTISSLKDGGKAAQANVRIGDVVLSIDGINAQGMTHLEAQNKIKGCTGSLNMTLQRASAAPKPEPVPVQKGEPKEVVKPVPITSPAVSKVTSTNNMAYNKAPRPFGSVSSPKVTSIPSPSSAFTPAHATTSSHASPSPVAAVTPPLFAASGLHANANLSADQSPSALSAGKTAVNVPRQPTVTSVCSETSQELAEGQRRGSQGDSKQQNGPPRKHIVERYTEFYHVPTHSDASKKRLIEDTEDWRPRTGTTQSRSFRILAQITGTEHLKESEADNTKKANNSQEPSPQLASSVASTRSMPESLDSPTSGRPGVTSLTTAAAFKPVGSTGVIKSPSWQRPNQGVPSTGRISNSAAYSGSVAPANSALGQTQPSDQDTLVQRAEHIPAGKRTPMCAHCNQVIRGPFLVALGKSWHPEEFNCAHCKNTMAYIGFVEEKGALYCELCYEKFFAPECGRCQRKILGEVINALKQTWHVSCFVCVACGKPIRNNVFHLEDGEPYCETDYYALFGTICHGCEFPIEAGDMFLEALGYTWHDTCFVCSVCCESLEGQTFFSKKDKPLCKKHAHSVNF | soluble
5 | MGSDKIHHHHHHMDNDWIADYLRPRLARDNGEHLSRQLYRQLRELIGQRRLAGGSVLPASRALAQAMQLGRNTVLSAYDQLAAEGYLESRHGSGTYVCDVFTNSTSQTSHSTAPARPLSQRGQRLTASSRLPVRKLGAFVPGLPELELFPHKAWQQCLARQQRSAPLEWLHYQHQGGLPALQSALIQYLYLTRSVRCEPEQIIIAPGAQNALTLLAQLLADPGDAIWLEEPGYAGAQAAMQAAGLRCQAIRVDEQGLRPDPEAAPPRIIYVTPAHQYPTGAVMALPRRLELLAHARRHGSWIIEDDYDGEFCYASAPLAALQSLDRDGRVIYLGTFSKVMFPSLKLAYLVLPPELVDSYRRCQARLQGEGSYLQQAAVADFIAQGHFARHIRHMRELYQRRQQLLKHAADQYLGHAMSLHGGDAGMHLLAELPDGFDEWELQAAAAERLLWLRPLARHFLDTPYRNGLVLGYAGIDDHAIRPAVQQLADLLETRLK | not soluble
6 | QQFFFENDALGQSSTDFATNFLNLWDNNREQLLNLYSPQSQFSVSVDSTIPPSTVTDSDQTPAFGYYMSSSRNISKVSSEKSIQQRLSIGQESINSIFKTLPKTKHHLQEQPNEYSMETISYPQINGFVITLHGFFEETGKPELESNKKTGKNNYQKNRRYNHGYNSTSNNKLSKKSFDRTWVIVPMNNSVIIASDLLTVRAYSTGAWKTASIAIAQAAGS | soluble
7 | MSLSIPREFSNAIRFLSIDATLKAKSGHPGMPMGMADIATVLWTKFLKHNPNNPHWINRDRFVLSNGHGSMLLYSLLHLTGYDLSIEDIKNFRQLHSKTPGHPEYGYTPGVETTTGPLGQGVANAVGMALGEKLLSDRYNTPDLKVIDHHTYVFLGDGCLMEGVSHEACSLAGTLGLNKLVAFWDDNNISIDGDTKGWFSDNTPERFRAYGWHVIENVDGHDFVAIEKAINEAHSQQQKPTLICCKTVIGFGSPEKAGTASVHGSPLSDQERASAAKELNWDYQAFEIPQDVYKYWDAREKGQALEANWQGQRNLFKDSPKFDEFERVLSKELPVGLESAINDYIASQLSNPVKVATRKASQMVLEVLCKNMPEMFGGSADLTGSNNTNWSGSVWLNNTQEGANYLSYGVREFGMAAIMNGLSLYGGIKPYGGTFLVFSDYSRNAIRMSALMKQPVVHVMSHDSIGLGEDGPTHQPIEHVPSLRLIPNLSVWRPADTIETMIAWKEAVKSKDTPSVMVLTRQNLMPVVQTQHQVANIARGGYLVKDNPDAKLTIVATGSEVELAVKVANEFEKKGIKLNVASIPCVEVFATQAHEYKKTVIKDDIPAVFVEMAQPDMWYKYMPKAGGEVKGIYSFGESAPAEDLFKRFGFTVENISNIVAKYV | soluble
8 | MGSDKIHHHHHHMDNLPDKLQNIVEEVDHQIAPKLEEIEDQIVYNQAKVLKAFQDNNVAEADLNGATGYGDDDIGRDKLDKVYAQVFDTEDALVRPQFVSGTHTLFTALSGNLKYGDTLTYLTGMPYDTLQKVIGLTDDKRGTLAEKGVKFSYVPLSDENLIDYDVAEKILKRDQPKMVAIQRSRGYSTRKTFTVEQIKEMISFVKKVSPNSIIFIDNCYGEFAEKYEPTEYGADLMAGSLIKNAGGGLAKTGGYIVGKKDLVENAKLQLTAPGCTDEGATIGHLHDLYEGFFLAPNVTGMAEKGMIFAAALFEKMGLNVTPAWDEKRSDIIETIIFNDPEKMVKFVQEVQKNSPIDSFVTPEAVHMEGYEDKIIMAAGNFVSGSTIEFSADGPIRPPYAVYMQGGLTYAHDKVAIINSVRDTFFNKK | not soluble
9 | SMKINFLRNKHKIHVQGTDLPDPIATFQQLDQEYKINSRLLQNILDAGFQMPTPIQMQAIPVMLHGRELLASAPTGSGKTLAFSIPILMQLKQPANKGFRALIISPTRELASQIHRELIKISEGTGFRIHMIHKAAVAAKKFGPKSSKKFDILVTTPNRLIYLLKQDPPGIDLASVEWLVVDESDKLFEDGKTGFRDQLASIFLACTSHKVRRAMFSATFAYDVEQWCKLNLDNVISVSIGARNS | soluble
10 | MGSDKIHHHHHHMNNTTENGQYFVAAFEPGAEHPALPTWASCNDNGAELALSAPSTVSKKPLTDVPGAFQLLNVLSADECQRLISVSETMGFLPDAAVSLPRNVRHNDSLTWVVDNTTERLIWDRIAGVMTDDLGIFEGKAALGLNNRFRFYRYNEGDYFKPHSDGSWPGSQVIDGELVRDAFGDRYSQLTFLILLTEDFEGGATRFLVNADKPNLPAKHGDNMRQVDVRTPAGSVLCFPHGMHPLHCIHSSEPIFSGVKYIIRTDVLFEL | not soluble
11 | MKIAALYDIHGNYPALKEVLKQVKKLSPDLVVLGGDLIAGPMPLETLSLLKHVSTTFKTVGIMGNNDQDIVDIYAKKRVGLSRKATEQLTWIANQLSYKQVSFLRNLLPSISIGNYFFCHAVKNDNTTVFSPQQNKAYIETLFKGVQESYIICGHTHIQFELSLPNKKIINAGSIGMPFSNQFGAQWLWLDDNRIEYKRTIFNQQAAIQLISQTEYPFKNEFIANNLRSTISLSQGYSILNTLIRAQNAQHDLSLEHHHHHH | soluble
12 | MGSDKIHHHHHHMNRFIIADASKCIGCRTCEVACVVSHQEHQDCASLTPHTFQPRIHVIKGVNVSTATACRQCEDAPCANVCPNGAISRDKGFVHVMQERCIGCKTCVVACPYGAMEVVVRPVIRHSGAGLNVVAEKAEANKCDLCFHRESGPACMEVCPTHALVCVDRNKLEQMNIEKRRRTALAW | not soluble
13 | MSTDLRALLEQARQQGDYTALLEQIPYAKLIGIECTQLGDELLFRLPANKDNIGNPLLPALHGGVIAGFMELAAALHLLILTGSPGVPKIIDFSLDYLRAGQFRDTFARCQVCRQGRRVANVAITAWQSTAEESIATARAHFKIEESTGPLEHHHHHH | soluble
